Patent US20130190232A1 (Novo Nordisk, published 2013)
Positions count from the first letter of the chain named. Numbers in names are those of the source.

T1: human beta-Klotho (human, UniProt Q86Z14 1-1044)
T1 sequence (looked up): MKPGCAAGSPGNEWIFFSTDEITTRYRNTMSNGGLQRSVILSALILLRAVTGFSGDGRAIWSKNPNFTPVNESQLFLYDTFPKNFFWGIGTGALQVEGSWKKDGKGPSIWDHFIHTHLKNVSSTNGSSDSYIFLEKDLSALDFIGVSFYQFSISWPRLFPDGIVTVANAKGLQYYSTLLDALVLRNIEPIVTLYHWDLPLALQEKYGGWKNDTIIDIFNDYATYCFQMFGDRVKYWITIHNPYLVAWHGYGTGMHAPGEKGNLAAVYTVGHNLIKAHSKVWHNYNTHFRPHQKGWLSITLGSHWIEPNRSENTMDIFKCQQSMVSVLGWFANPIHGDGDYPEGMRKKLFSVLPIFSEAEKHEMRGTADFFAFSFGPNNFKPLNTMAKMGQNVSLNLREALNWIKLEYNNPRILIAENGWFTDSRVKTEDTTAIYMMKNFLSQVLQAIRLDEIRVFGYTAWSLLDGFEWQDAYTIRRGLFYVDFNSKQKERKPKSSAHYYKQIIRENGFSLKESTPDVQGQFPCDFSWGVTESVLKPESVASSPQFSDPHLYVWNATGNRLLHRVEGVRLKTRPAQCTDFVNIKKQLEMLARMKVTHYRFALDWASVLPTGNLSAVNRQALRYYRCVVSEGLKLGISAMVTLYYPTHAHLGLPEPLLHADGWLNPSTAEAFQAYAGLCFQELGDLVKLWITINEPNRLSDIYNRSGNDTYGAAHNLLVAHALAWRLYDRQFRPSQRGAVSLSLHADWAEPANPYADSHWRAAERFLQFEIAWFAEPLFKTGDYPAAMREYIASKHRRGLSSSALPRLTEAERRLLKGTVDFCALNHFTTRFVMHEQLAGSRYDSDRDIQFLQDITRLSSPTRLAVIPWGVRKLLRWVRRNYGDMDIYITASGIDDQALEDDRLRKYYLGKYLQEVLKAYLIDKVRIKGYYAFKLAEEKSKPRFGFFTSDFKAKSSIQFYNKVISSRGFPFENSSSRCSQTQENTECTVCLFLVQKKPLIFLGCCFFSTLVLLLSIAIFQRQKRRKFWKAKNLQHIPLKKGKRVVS

B1: [N121Q, L166F, S167G, M168L, P171L, S172E, Q173A, G174V, Y179F, A180E, des181]Ala-FGF21 (ligand)
chain: AHPIPDSSPLLQFGGQVRQRYLYTDDAQQTEAHLEIREDGTVGGAADQSPESLLQLKALKPGVIQILGVKTSRFLCQRPDGALYGSLHFDPEACSFRELLLEDGYNVYQSEAHGLPLHLPGQKSPHRDPAPRGPARFLPLPGLPPALPEPPGILAPQPPDVGSSDPFGLVGLEAVRSPSFE
B2: N-alpha(4-{[2-(2-{2-[2-(2-{2-[(S)-4-Carboxy-4-(17-carboxyheptadecanoylamino)butyrylamino]-ethoxy}ethoxy)acetylamino]ethoxy}ethoxy)acetylamino]methyl}benzyl) … (ligand)
chain: B1 chain with S72C
modifications: alpha amino group of the N-terminal Ala carries one 4-{[2-(2-{2-[2-(2-{2-[(S)-4-carboxy-4-(17-carboxyheptadecanoylamino)butyrylamino]ethoxy}ethoxy)acetylamino]ethoxy}ethoxy)acetylamino]methyl}benzyl group
B3: [S71C, N121Q, L166F, S167G, M168L, P171L, S172E, Q173A, G174V, Y179F, A180E, des181]Ala-FGF21 (ligand)
chain: B1 chain with S72C
B4: [S71C, N121Q, L166F, S167G, M168L, des170, 173aA, G174V, Y179F, A180E, des181]Ala-FGF21 (ligand)
chain: B1 chain with S72C, G171P, L172S, E173Q
B5: Met-FGF21 (Compound A) (ligand)
chain: MHPIPDSSPLLQFGGQVRQRYLYTDDAQQTEAHLEIREDGTVGGAADQSPESLLQLKALKPGVIQILGVKTSRFLCQRPDGALYGSLHFDPEACSFRELLLEDGYNVYQSEAHGLPLHLPGNKSPHRDPAPRGPARFLPLPGLPPALPEPPGILAPQPPDVGSSDPLSMVGPSQGRSPSYAS
B6: [N121Q]Met-FGF21 (ligand)
chain: B5 chain with N122Q
B7: [K56R, K59R, K69R, K122R]Gly-FGF21 (ligand)
chain: B5 chain with M1G, K57R, K60R, K70R, K123R
B8: N-alpha-bis-(4-{[2-(2-{2-[2-(2-{2-[(S)-4-carboxy-4-(17-carboxyheptadecanoylamino)butyrylamino]ethoxy}ethoxy)acetylamino]ethoxy}ethoxy)acetylamino]methyl}benzyl) … (ligand)
chain: B5 chain with M1G, K57R, K60R, K70R, K123R
modifications: alpha amino group of the N-terminal Gly carries two 4-{[2-(2-{2-[2-(2-{2-[(S)-4-carboxy-4-(17-carboxyheptadecanoylamino)butyrylamino]ethoxy}ethoxy)acetylamino]ethoxy}ethoxy)acetylamino]methyl}benzyl groups
B9: [N121Q] Ala-FGF21 (ligand)
chain: B5 chain with M1A, N122Q
B10: [S71C, N121Q, L166F, S167G, M168L, 173aA, G174V, Y179F, A180E, des181]Ala-FGF21 (ligand)
chain: AHPIPDSSPLLQFGGQVRQRYLYTDDAQQTEAHLEIREDGTVGGAADQSPESLLQLKALKPGVIQILGVKTCRFLCQRPDGALYGSLHFDPEACSFRELLLEDGYNVYQSEAHGLPLHLPGQKSPHRDPAPRGPARFLPLPGLPPALPEPPGILAPQPPDVGSSDPFGLVGPSQAVRSPSFE

Target: T1, human beta-Klotho
Test: cell-based or functional assay

| Molecule | pERK-HEK293-Beta-klotho without HSA [EC50 (nM)] Mean Value |
| --- | --- |
| [Q28R, K56R, K59R, K69R, D102T, D121Q, K122R, L166F, S167G, M168L, G170T] Ala-FGF21 (from UniProt Q9NSA1 28-209) (ligand) | 0.8 nM |
| N-alpha-(4-{[2-(2-{2-[2-(2-{2-[(S)-4-carboxy-4-(17-carboxyheptadecanoylamino)butyrylamino]ethoxy}ethoxy)acetylamino]ethoxy}ethoxy)acetylamino]methyl}benzyl) [K56R, K59R, K69R, D102T, D121Q, K122R, L166F, S167G, M168L, G170T] Ala-FGF21 (Compound III) (from UniProt Q9NSA1 28-209) (ligand) | 1 nM |
| B1 | 0.7 nM |
| B2 | 0.4 nM |
| B3 | 0.6 nM |
| B4 | 1.8 nM |
| B5 | 1.6 nM |
| B6 | 1 nM |
| B7 | 8.3 nM |
| B8 | 4.6 nM |
| B9 | 2.3 nM |
| B10 | 0.4 nM |
